This passage reports Kd results from publication PMC8721105.

Usually Kd stands for the free concentration of one partner at which half of the binding sites on the other are occupied at equilibrium, for simple one-to-one binding. A lower Kd goes with higher affinity.

In assay [1] the target is TbPEX19FL-His (T. brucei). In words: ELISA.
The target of assay [2] is TbPEX19FL-His (T. brucei). In words: AlphaScreen or HTRF. On the technique in general: Bead proximity is the source of the signal in Alpha formats.
Assay [3] concerns the target GST-TbPEX3d44 (T. brucei). In words: AlphaScreen or HTRF.

Turning to GST-TbPEX3d44 (domain or fragment), the Kd came to 0.16 nM in assay [1] and 32.8 nM in assay [2].

On to TbPEX19-Strep (natural protein), for which the Kd in assay [3] is 3.7 nM.

tag-free TbPEX19 (natural protein) yielded a Kd in assay [3] of 9.7 nM.
